In assay [1] the target is T1, N-terminal His-tagged Human 4RON tau (human, UniProt P10636-6 1-383). The experiment in a line: ELISA.
Assay [2] concerns the target T1, N-terminal His-tagged Human 4RON tau. The experiment in a line: ELISA. This is another data set of the same source. In general terms: In an ELISA, binding on a coated surface is turned into a signal by an enzyme label.

Where two headings read alike, the source gives them in different places.

What is called IC50 is the midpoint of a concentration-inhibition curve. A low value points to inhibition by little substance.

B1: Hsp90β (HSP90AB1) (natural protein)
chain: not shown
As for B1, the values for the IC50 in assay [1] and in assay [2] were 59 µM and 3000 nM, respectively.

The record behind these values is publication PMC3477299 (ACS chemical biology, 2012).
